Test results from the Human Domainome abundance scans (Beltran et al. 2025).

B1: Protein S100-G, residues 1 to 79; numbered along this chain, P02633 (parent)
chain: MSAKKSPEELKGIFEKYAAKEGDPNQLSKEELKLLLQTEFPSLLKGPSTLDELFEELDKNGDGEVSFEEFQVLVKKISQ

Variants of: B1
Test: abundance fitness (aPCA) (normalised: wild type 0, dead -1); higher = more abundant; growth selection in yeast, the domain comes from the species named
Details: Bos taurus

Abundance fitness, by site and new letter:
E68: Q -0.099; L -0.098; K 0.018; C -0.073; F -0.062; T -0.012; A -0.016; Y -0.216; G -0.06; N -0.047; R -0.046
K75: H 0.01; C -0.148; P -0.186; Y -0.173; L -0.045; F -0.151; R -0.074; I -0.167; G -0.022; V -0.074; D -0.063; T -0.073; Q -0.11; S -0.023; W -0.125; M -0.098
S66: Y -0.086; T 0.029; C 0.053; P -0.107; L -0.137; V 0; K -0.066; H -0.146; N 0.014; F -0.124; I -0.101; A -0.009; M 0.008; E 0.048; G 0.033; Q -0.101; W -0.382; R -0.036
V74: T 0.024; S 0; G -0.023; Q 0.102; I 0.066; C -0.069; R -0.245; M 0.016; L -0.018; D -0.044; W 0.063; K 0.041; N -0.001; E -0.004
V72: A -0.034; E -0.092; L -0.004; P -0.018; D -0.068; F -0.032; K 0.022; N -0.012; Q -0.059; G 0.038; S -0.043; Y -0.059; M -0.035; T 0.053; I -0.022; H -0.029
K76: G 0.011; Q -0.056; H -0.153; I -0.131; S -0.119; N -0.196; E -0.126; M -0.218; C -0.29; V -0.191; T -0.175; R -0.094; D -0.127; Y -0.325; P -0.238; W -0.293; L -0.247
F67: Q 0.04; L -0.059; P -0.257; S -0.097; V -0.059; A -0.123; N -0.131; M -0.176; I -0.161; E -0.063; Y -0.022; C -0.05; R -0.141; T -0.201; W -0.038; G -0.175; D -0.294; K -0.172; H -0.12
I77: M -0.143; G -0.111; R -0.179; F 0.051; D -0.17; A -0.169; W -0.176; H -0.155; Y -0.104; T -0.14; L -0.073; S -0.165; C -0.136; E -0.142; Q -0.092; N -0.025; K -0.148; V -0.158
V65: S -0.109; P -0.34; I 0.007; Q -0.165; N -0.2; G -0.37; L 0.044; K -0.171; W -0.018; R -0.165; M 0.025; T 0.037
F70: Y -0.039; L -0.157; T -0.162; N -1.25; E -1.25; V -0.165; G -0.73; C -0.169; P -0.94; A -0.157; S -0.531; K -0.965; Q -1.01; W -0.115; R -0.797; H -1; M -0.105; I -0.534; D -1.14
S78: P 0.258; A 0.245; Y -1.23; L -0.188; M -0.049; G -0.329; F -0.25
